Results published in IntAct's records for PubMed 17525731.

Legend:
creb1_mouse Creb1 [1] = biological target: creb1_mouse Creb1 (UniProt Q01147)
creb1_mouse Creb1 [2] = biological target: creb1_mouse Creb1 (UniProt Q01147); remark: listed apart in the source

Sequence of creb1_mouse Creb1 (Q01147 whole entry): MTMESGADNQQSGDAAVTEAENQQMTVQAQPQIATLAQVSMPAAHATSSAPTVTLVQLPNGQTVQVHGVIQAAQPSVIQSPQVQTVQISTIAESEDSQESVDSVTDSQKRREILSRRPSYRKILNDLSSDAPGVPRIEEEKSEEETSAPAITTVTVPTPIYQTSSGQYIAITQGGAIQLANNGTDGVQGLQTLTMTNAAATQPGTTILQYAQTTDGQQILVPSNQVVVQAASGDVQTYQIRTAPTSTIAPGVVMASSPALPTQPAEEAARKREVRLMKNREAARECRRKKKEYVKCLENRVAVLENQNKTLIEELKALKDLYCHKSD
Sequence of Creb1, Q01147-1 (Q01147 other isoform, or with tags, fused parts or gaps): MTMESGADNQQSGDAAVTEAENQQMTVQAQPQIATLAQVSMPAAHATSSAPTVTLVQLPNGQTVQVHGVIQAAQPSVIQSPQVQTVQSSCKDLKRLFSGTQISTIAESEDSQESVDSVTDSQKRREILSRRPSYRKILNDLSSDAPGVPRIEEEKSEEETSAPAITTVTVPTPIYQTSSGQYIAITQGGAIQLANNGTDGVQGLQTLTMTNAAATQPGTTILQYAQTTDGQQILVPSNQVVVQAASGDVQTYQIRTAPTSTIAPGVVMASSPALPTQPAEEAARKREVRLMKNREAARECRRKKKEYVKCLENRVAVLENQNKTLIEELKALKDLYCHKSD

Substance | effect of a mutation on the interaction (creb1_mouse Creb1 [1]) | effect of a mutation on the interaction (creb1_mouse Creb1 [2]) | effect of a mutation on the interaction (Creb1, Q01147-1)
Histone acetyltransferase p300 (Homo sapiens), Q09472 Y638A | disrupting interaction |  | 
Histone acetyltransferase p300 (Homo sapiens), Q09472 Y630A | disrupting interaction |  | 
Histone lysine acetyltransferase CREBBP (Mus musculus), P45481 Y650A |  | disrupting interaction | disrupting interaction
Histone lysine acetyltransferase CREBBP (Mus musculus), P45481 A654Q |  | disrupting interaction | disrupting interaction
Histone acetyltransferase p300 (Homo sapiens), Q09472 A634Q | disrupting interaction |  | 
Histone lysine acetyltransferase CREBBP (Mus musculus), P45481 Y658A |  | disrupting interaction | disrupting interaction
